Experimental data taken from US20250188180A1 (BIOINTRON BIOLOGICAL, published 2025).

Experiments:
[1] = target: CD40 antigen on cells (cell-based binding assay) (UniProt P25942); assay: cell-based binding assay on CD40 cells
[2] = target: T1, CD40 antigen on cells (cell-based binding assay) (UniProt P25942 21-277, limits assumed); assay: cell-based binding assay, 293F culture supernatant
T1 construct: whole, on cells; the cells are not described
T1 sequence (P25942 21-277 limits assumed): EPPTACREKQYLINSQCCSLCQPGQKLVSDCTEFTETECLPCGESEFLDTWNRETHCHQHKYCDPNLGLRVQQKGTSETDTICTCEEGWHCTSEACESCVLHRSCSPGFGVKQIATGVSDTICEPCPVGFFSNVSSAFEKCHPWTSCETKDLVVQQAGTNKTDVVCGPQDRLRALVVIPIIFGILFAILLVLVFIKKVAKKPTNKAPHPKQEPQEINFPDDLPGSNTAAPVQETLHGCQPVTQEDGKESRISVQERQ

CD40 antigen on cells (cell-based binding assay) (UniProt P25942), sequence (P25942 21-277 limits assumed): as above

Molecule | X Mean [1] | X Mean [2]
anti-CD40/APX005M (control antibody) | 10700 | –
ANb24-Alpaca1-4M-2SP-226 (Fc fusion, also called ANb24-A1-4M-2SP-226; ANb24-Alpacal-4M-2SP-226; not shown: Fc joined to the VHH by overlap PCR) QLQLVESGGGLVQPGGTLRLSCAASGVTLEYYSIGWFRQSPGKEREGVSCISGGGVQRYADSAEGRFAISRDNAKNMVYLQMNNLEPEDTAVYYCARARLLMRGCAPMDNYWGQGTQVTVSS | – | 10700
ANb24-Alpaca1-4M-2SP-332 (Fc fusion, also called ANb24-A1-4M-2SP-332; ANb24-Alpacal-4M-2SP-332; not shown: Fc joined to the VHH by overlap PCR) QVQLVESGGGLVQPGGSLRLSCAASGSTLASYAIGWFRQAPGKEREGISCISGSGGSTRAADSVQGRFTISRDNAKNTVSLQMNSLKPEDTAIYYCAKVRLLSRGCVPSPDFDSWGQGTQVTVSS | – | 4080
ANb24-Alpaca1-4M-2SP-317 (Fc fusion, also called ANb24-A1-4M-2SP-317; ANb24-Alpacal-4M-2SP-317; not shown: Fc joined to the VHH by overlap PCR) QLQLVESGGDLVQPGGSLRLSCTASGHTLEYYAIGWFRQAPGKEREGVSCIIGSGGSTRYFDSVLGRFTISRDNAKNTVFLQMNSLKPEDTAVYYCAKVRLLSRLCVPSSDFDSWGQGTQVTVSS | – | 8970
ANb24-Alpaca1-4M-2SP-149 (Fc fusion, also called ANb24-A1-4M-2SP-149; ANb24-Alpacal-4M-2SP-149; not shown: Fc joined to the VHH by overlap PCR) EVQLVESGGGLVQPGGSLRLSCTASGSTLDIYAIGWFRQAPGKEREGVSCITGSGSSTRYAHSVTGRFTISRDNAKNTVFLQMNSLKPEDTAVYYCAKARLLSRLCVPSPDFESWGQGTQVTVSS | – | 11500
ANb24-Alpaca1-4M-2SP-180 (Fc fusion, also called ANb24-A1-4M-2SP-180; ANb24-Abpacal-4M-2SP-180; not shown: Fc joined to the VHH by overlap PCR) QPQFVESGGGLVQPGGSLRLSCTASGSTLDIYAIGWFRQAPGKEREGVSCITGSGSSTRYADSVTGRFTISRDNAKNTVFLQMNSLKPDDTAVYYCAKARLLSMLCVPSPDFESWGQGTQVTVSS | – | 10800
ANb24-Alpaca1-4M-2SP-273 (Fc fusion, also called ANb24-A1-4M-2SP-273; ANb24-Alpacal-4M-2SP-273; not shown: Fc joined to the VHH by overlap PCR) EVQLVESGGGLVQPGGSLRLSCAASGSTLDYYAIGWFRQAPGKEREGVSCISGSGGSTRYADSVTGRFTISKDSAKNTVYLEMNSLKPEDTAVYYCARARLLSRLCVPSADFDSWGQGTQVTVSS | – | 4420
ANb24-Alpaca1-4M-2SP-335 (Fc fusion, also called ANb24-A1-4M-2SP-335; ANb24-Alpacal-4M-2SP-335; not shown: Fc joined to the VHH by overlap PCR) QPQFVESGGGLVQPGGTLRLSCAASGFTFEYYTIGWFRQTPGKEREGVSCITAAGVPRNADSAKGRFTISRDNAKNMVYLQMNNLKPEDTAVYYCAQARLLSTSCAPMNDYWGQGTQVTVSS | – | 8960
ANb24-Alpaca1-4M-2SP-175 (Fc fusion, also called ANb24-A1-4M-2SP-175; ANb24-Alpacal-4M-2SP-175; not shown: Fc joined to the VHH by overlap PCR) QPHFVESGGGLVQPGGSLRLSCVASGFTFEYVPIGWFRQAPGKEREGVSCITPTGITRNADSVKGRFTISRDNAKNTVYLQLNSLKPEDTAVYYCAKARLLSTSCVQTSDARGQGTQVTVSS | – | 10500
